Bridge positions count the residues as written; N and C are the ends. Square brackets hold non-standard residues; d marks the D form. Ends that are not written are not given here.
Legend:
[1] = molecular target: rat collagen (acid soluble, type I, rat tail, Upstate 08-115) (rat) (UniProt P02454); assay: dried collagen assay
[2] = molecular target: human collagen type I (acid soluble, extracted from placenta, Sigma C7774) (human) (UniProt P02452); assay: dried collagen assay
human collagen type I (acid soluble, extracted from placenta, Sigma C7774) (human), sequence (P02452 162-1218 limits assumed, chain 1 of 2): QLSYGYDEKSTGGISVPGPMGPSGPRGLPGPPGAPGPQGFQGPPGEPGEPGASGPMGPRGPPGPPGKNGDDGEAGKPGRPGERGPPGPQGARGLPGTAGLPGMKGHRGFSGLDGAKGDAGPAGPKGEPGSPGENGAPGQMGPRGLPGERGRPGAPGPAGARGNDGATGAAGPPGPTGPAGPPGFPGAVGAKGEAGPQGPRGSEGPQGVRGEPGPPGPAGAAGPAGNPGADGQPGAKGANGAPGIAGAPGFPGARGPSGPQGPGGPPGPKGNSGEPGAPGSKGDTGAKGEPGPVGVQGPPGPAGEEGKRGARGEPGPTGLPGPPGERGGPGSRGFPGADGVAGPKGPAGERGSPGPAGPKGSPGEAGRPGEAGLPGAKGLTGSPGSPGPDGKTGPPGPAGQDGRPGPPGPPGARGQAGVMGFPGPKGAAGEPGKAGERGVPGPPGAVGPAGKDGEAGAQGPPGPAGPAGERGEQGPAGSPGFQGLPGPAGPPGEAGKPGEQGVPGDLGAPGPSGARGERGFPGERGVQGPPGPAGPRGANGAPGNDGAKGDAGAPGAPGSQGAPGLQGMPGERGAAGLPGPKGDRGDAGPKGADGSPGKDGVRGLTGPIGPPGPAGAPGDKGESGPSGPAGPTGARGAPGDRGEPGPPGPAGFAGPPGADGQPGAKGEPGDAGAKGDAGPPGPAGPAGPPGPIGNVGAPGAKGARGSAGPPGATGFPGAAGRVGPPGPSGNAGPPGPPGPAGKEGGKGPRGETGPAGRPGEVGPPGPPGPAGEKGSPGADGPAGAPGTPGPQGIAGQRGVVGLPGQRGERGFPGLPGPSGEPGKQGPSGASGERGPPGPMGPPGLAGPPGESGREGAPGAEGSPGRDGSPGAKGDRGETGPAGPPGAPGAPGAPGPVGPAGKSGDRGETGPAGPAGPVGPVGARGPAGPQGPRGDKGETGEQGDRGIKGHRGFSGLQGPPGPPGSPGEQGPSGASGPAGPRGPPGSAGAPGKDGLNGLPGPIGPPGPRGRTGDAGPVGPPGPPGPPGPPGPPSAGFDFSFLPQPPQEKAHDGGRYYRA
human collagen type I (acid soluble, extracted from placenta, Sigma C7774) (human), sequence (P08123 80-1119 limits assumed, chain 2 of 2, further chain): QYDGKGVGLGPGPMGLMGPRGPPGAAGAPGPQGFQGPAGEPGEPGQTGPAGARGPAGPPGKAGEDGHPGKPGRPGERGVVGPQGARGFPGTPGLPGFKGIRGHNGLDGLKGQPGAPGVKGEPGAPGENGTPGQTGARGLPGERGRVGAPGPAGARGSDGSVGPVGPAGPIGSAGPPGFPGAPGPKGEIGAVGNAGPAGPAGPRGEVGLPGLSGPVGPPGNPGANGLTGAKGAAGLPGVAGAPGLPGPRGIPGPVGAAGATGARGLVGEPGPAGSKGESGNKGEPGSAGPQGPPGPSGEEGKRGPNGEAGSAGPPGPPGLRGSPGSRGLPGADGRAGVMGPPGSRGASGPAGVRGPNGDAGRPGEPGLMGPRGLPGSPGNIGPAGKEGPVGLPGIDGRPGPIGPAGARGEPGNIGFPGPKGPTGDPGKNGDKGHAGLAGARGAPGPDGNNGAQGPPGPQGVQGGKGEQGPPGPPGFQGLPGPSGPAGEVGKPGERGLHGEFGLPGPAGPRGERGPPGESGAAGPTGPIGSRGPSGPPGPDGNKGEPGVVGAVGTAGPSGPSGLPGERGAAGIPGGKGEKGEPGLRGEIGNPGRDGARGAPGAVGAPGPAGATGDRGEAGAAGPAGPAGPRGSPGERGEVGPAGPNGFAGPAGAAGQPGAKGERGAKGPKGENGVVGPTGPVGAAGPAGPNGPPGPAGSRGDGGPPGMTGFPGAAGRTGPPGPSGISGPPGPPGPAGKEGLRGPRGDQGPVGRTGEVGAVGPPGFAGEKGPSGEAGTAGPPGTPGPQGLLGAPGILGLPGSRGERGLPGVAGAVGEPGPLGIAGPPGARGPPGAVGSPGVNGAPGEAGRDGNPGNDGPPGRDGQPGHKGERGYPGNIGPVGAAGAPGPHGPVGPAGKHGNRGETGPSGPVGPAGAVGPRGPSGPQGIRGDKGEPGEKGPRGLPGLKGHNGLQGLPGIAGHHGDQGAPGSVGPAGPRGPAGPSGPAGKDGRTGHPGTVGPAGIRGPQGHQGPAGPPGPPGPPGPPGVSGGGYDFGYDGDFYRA

rat collagen (acid soluble, type I, rat tail, Upstate 08-115) (rat), sequence (P02454 152-1207, chain 1 of 2): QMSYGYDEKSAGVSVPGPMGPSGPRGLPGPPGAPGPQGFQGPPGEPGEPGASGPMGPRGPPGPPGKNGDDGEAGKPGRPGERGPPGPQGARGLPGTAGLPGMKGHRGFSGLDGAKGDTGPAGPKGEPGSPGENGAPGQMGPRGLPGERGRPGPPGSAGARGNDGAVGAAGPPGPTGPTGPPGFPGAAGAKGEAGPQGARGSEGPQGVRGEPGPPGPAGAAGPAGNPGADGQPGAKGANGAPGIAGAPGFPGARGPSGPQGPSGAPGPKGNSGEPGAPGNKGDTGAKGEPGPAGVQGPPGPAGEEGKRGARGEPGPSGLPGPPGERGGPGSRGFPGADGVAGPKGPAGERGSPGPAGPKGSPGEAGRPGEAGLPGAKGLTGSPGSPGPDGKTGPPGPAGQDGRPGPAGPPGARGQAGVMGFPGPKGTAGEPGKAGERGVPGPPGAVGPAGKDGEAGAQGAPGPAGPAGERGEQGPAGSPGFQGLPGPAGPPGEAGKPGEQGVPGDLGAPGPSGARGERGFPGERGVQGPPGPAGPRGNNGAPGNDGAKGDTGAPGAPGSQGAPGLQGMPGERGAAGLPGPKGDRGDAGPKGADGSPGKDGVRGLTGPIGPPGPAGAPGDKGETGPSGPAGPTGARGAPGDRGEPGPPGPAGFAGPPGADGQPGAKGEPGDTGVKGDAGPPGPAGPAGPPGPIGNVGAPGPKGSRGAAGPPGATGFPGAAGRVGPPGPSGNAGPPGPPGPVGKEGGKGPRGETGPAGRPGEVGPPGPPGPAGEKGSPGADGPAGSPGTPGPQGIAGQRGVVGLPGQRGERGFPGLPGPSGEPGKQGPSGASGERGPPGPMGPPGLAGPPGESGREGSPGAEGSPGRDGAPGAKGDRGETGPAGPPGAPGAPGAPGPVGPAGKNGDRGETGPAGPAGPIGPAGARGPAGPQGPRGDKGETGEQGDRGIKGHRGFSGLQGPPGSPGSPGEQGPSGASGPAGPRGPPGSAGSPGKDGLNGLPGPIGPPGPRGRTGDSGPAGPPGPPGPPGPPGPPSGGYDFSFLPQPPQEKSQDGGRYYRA
rat collagen (acid soluble, type I, rat tail, Upstate 08-115) (rat), sequence (P02466 86-1125, chain 2 of 2, further chain): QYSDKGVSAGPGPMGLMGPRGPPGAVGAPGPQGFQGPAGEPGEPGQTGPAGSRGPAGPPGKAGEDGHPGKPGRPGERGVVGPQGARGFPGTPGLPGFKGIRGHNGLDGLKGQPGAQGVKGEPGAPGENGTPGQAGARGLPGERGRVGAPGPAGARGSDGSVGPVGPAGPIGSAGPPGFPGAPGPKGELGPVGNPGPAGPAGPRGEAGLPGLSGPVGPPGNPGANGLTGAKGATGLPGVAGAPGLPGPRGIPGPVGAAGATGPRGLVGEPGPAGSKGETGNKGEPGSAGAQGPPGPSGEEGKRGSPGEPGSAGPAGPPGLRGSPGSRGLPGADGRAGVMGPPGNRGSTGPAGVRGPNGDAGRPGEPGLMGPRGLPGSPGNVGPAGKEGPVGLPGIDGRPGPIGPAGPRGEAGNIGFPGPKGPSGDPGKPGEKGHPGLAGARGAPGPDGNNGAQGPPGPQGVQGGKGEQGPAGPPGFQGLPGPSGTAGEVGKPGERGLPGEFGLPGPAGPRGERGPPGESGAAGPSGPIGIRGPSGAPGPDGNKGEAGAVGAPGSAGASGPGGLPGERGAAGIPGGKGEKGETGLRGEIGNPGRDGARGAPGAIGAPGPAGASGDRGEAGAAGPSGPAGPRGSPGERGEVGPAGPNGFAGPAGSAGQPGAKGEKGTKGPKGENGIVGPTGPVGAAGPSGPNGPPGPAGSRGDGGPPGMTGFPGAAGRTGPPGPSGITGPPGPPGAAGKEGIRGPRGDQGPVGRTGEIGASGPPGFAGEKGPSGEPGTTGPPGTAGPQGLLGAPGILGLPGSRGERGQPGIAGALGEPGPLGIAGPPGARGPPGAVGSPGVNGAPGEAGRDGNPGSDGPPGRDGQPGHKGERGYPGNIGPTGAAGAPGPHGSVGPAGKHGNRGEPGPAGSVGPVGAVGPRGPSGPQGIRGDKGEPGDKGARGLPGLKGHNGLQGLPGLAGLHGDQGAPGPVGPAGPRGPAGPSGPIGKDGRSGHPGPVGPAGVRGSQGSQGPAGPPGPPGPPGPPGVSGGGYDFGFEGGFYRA

Binder | % Collagen Binding [1] [%] | % Collagen Binding [2] [%]
GQWTCSGDEYTWH[dC]NYE (disulfide 5-14 (inferred); not fully specified (C-terminus); printed as Q W T C S G D E Y T W H c N Y E) [SEQ ID NO: 175] | 2 | 2
GQWTCSG[dD]EYTWHCNYE (disulfide 5-14 (inferred)) [SEQ ID NO: 169] | 4 | 11
GQWT[dC]SGDEYTWHCNYE (disulfide 5-14 (inferred)) [SEQ ID NO: 167] | 0 | 4
GQWTCSGDEYTWHCN[dY]E (disulfide 5-14 (inferred); not fully specified (C-terminus); printed as Q W T C S G D E Y T W H C N y E) [SEQ ID NO: 177] | 27 | 30
GQWTC[dS]GDEYTWHCNYE (disulfide 5-14 (inferred)) [SEQ ID NO: 168] | 2 | 3
DWTCSRDEYTWHCNYE [SEQ ID NO: 181] | 86 | 87
GQWTCSGDEYT[dW]HCNYE (disulfide 5-14 (inferred); not fully specified (C-terminus); printed as Q W T C S G D E Y T w H C N Y E) [SEQ ID NO: 173] | 4 | 5
GQWTCSGDEYTWHCNY[dE] (disulfide 5-14 (inferred); not fully specified (C-terminus); printed as Q W T C S G D E Y T W H C N Y e) [SEQ ID NO: 178] | 87 | 90
GQWTCSGD[dE]YTWHCNYE (disulfide 5-14 (inferred)) [SEQ ID NO: 170] | 35 | 49
GQWTCSGDEYTW[dH]CNYE (disulfide 5-14 (inferred); not fully specified (C-terminus); printed as Q W T C S G D E Y T W h C N Y E) [SEQ ID NO: 174] | 0 | 5
DWTCSLDEYTWHCNYE [SEQ ID NO: 183] | 63 | 73
GQWTCSGDEYTWHC[dN]YE (disulfide 5-14 (inferred); not fully specified (C-terminus); printed as Q W T C S G D E Y T W H C n Y E) [SEQ ID NO: 176] | 2 | 2
GQWTCSGDE[dY]TWHCNYE (disulfide 5-14 (inferred); not fully specified (C-terminus); printed as Q W T C S G D E y T W H C N Y E) [SEQ ID NO: 171] | 6 | 13
DWTCSSDEYTWHCNYE [SEQ ID NO: 180] | 72 | 81
DWTCSYDEYTWHCNYE [SEQ ID NO: 182] | 86 | 89
GQWTCSGDEY[dT]WHCNYE (disulfide 5-14 (inferred); not fully specified (C-terminus); printed as Q W T C S G D E Y t W H C N Y E) [SEQ ID NO: 172] | 8 | 9
DWTCSADEYTWHCNYE [SEQ ID NO: 179] | 75 | 81
